Consider 1 molecule from paper PMC7615710 (2023).

Assay [1] has as its target T1, ASPP2 C-terminal domain (CTD), tag cleaved (UniProt Q13625 925-1128).
T1 chain: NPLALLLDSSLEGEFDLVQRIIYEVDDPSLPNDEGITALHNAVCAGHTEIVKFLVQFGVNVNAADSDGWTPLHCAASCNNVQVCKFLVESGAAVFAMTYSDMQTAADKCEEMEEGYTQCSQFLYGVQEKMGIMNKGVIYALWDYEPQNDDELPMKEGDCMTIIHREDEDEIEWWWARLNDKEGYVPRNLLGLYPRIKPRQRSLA
Nature of the assay: ITC.

Assay [2] deals with T2, ASPP1 C-terminal domain (CTD), tag cleaved (UniProt Q96KQ4 887-1090).
T2 chain: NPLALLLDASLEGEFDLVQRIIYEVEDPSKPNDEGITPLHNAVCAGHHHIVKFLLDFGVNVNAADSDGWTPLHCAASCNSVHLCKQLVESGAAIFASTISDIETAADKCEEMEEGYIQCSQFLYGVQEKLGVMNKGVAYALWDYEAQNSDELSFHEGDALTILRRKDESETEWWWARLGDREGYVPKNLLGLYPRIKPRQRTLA
Nature of the assay: ITC. A general note: ITC needs no label: the signal is the heat of the interaction.

Turning to LPPPKKAPTPPPRRRRTVGL [NS5A PRR peptide of HCV strain JFH-1 (20 aa)], the Kd – broadly, the constant that tells how readily two partners part at equilibrium – was found to be 42.4 nM in assay [1] and 3780 nM in assay [2].
